Source: patent publication US20160101154A1 (SAMSUNG ELECTRONICS, published 2016)

Columns and labels:
[1] = target: T1, Tie2 proteins (Q02763, R&D systems) (UniProt Q02763 23-745, limits assumed); experiment: ELISA, Tie2 coated, Ang2 proteins at 5 µg/ml
T1 construct: Bought protein coated on ELISA plates

[2] = target: T2, integrin alpha5beta1 protein (R&D systems) (human, UniProt P08648 42-995; P05556 21-728, limits assumed); experiment: ELISA, integrin coated at 5 µg/ml, FLAG-Ang2 at 10 µg/ml, anti-FLAG-HRP
T2 construct: Bought recombinant heterodimer coated on the ELISA plate; also called α5β1

[3] = target: T3, integrin alphaVbeta1 protein (R&D systems) (human, UniProt P06756 31-992; P05556 21-728); experiment: as above
T3 construct: Bought recombinant heterodimer coated on the ELISA plate; also called αVβ1

[4] = target: T4, integrin alphaVbeta3 protein (R&D systems) (human, UniProt P06756 31-992; P05106 27-718); experiment: as above
T4 construct: Bought recombinant heterodimer coated on the ELISA plate; also called αVβ3; integrin (αVβ3)

integrin on U87MG cells = experiment: cell-based or functional assay
[5] = target: T4, integrin alphaVbeta3 protein (R&D …); experiment: ELISA, integrin αVβ3 coated, Ang2 proteins at 5 µg/ml

T4 sequence (P06756 31-992 limits assumed, chain 1 of 2): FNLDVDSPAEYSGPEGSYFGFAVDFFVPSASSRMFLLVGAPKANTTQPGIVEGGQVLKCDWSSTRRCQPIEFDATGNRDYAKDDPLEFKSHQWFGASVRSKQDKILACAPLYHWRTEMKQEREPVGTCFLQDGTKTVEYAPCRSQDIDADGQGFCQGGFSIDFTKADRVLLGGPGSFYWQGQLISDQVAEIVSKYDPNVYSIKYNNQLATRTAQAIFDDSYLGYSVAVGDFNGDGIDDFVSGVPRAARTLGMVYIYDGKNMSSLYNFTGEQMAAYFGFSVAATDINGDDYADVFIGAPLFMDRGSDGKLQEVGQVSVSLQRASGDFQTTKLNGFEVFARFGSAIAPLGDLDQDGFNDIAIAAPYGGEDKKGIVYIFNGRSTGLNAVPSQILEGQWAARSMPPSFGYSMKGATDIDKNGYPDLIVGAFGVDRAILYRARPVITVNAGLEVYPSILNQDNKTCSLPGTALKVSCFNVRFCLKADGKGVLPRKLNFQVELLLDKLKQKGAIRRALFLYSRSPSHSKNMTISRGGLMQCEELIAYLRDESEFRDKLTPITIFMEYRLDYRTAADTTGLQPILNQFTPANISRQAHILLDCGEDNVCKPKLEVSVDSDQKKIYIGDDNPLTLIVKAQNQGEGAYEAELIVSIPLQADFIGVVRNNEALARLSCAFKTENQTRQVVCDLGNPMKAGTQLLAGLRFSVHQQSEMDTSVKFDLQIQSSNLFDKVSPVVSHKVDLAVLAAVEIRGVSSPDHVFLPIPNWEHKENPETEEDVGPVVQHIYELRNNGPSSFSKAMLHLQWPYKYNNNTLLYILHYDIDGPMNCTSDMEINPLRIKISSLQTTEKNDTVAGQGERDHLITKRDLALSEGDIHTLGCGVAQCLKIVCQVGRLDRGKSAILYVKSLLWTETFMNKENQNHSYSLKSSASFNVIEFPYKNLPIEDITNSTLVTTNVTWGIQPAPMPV
T4 sequence (P05106 27-718 limits assumed, chain 2 of 2): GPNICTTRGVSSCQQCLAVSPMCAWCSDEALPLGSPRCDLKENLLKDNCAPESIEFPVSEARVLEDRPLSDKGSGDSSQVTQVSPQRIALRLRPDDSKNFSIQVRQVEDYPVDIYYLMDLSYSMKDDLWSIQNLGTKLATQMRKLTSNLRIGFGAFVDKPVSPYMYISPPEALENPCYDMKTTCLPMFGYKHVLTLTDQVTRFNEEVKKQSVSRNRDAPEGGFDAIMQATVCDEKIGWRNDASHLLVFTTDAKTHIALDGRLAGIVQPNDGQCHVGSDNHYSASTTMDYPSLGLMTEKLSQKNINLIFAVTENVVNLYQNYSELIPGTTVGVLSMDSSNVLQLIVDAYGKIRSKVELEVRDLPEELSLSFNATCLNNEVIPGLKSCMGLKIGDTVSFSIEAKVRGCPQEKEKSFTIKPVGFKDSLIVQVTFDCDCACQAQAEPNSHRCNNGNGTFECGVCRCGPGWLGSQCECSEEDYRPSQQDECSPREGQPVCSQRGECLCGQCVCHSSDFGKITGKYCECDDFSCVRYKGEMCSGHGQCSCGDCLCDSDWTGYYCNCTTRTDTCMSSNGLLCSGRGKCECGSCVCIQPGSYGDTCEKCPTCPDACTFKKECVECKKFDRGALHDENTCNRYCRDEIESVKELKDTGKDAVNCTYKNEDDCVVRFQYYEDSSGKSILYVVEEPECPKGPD
T1 sequence (Q02763 23-745 limits assumed, one chain of several): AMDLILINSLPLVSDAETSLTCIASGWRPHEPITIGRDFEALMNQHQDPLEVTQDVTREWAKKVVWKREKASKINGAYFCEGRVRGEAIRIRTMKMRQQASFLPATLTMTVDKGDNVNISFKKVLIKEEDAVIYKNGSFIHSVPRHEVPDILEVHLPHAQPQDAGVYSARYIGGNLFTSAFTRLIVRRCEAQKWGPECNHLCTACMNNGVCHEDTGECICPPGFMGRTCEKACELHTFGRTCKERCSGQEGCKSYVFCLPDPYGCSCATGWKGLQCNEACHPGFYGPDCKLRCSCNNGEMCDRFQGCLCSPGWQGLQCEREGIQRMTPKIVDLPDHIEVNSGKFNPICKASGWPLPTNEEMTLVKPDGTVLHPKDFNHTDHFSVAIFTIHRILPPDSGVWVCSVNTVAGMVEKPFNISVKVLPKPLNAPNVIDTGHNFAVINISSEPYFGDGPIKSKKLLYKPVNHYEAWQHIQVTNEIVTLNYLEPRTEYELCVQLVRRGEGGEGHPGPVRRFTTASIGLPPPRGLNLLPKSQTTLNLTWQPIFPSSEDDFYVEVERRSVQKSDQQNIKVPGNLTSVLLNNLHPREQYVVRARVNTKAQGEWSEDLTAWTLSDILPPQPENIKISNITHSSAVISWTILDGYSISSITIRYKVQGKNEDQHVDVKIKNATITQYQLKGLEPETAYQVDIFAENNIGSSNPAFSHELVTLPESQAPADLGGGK
T3 sequence (P06756 31-992 limits assumed, chain 1 of 2): as the sequence (P06756 31-992 limits assumed, chain 1 of 2) above
T3 sequence (P05556 21-728 limits assumed, chain 2 of 2): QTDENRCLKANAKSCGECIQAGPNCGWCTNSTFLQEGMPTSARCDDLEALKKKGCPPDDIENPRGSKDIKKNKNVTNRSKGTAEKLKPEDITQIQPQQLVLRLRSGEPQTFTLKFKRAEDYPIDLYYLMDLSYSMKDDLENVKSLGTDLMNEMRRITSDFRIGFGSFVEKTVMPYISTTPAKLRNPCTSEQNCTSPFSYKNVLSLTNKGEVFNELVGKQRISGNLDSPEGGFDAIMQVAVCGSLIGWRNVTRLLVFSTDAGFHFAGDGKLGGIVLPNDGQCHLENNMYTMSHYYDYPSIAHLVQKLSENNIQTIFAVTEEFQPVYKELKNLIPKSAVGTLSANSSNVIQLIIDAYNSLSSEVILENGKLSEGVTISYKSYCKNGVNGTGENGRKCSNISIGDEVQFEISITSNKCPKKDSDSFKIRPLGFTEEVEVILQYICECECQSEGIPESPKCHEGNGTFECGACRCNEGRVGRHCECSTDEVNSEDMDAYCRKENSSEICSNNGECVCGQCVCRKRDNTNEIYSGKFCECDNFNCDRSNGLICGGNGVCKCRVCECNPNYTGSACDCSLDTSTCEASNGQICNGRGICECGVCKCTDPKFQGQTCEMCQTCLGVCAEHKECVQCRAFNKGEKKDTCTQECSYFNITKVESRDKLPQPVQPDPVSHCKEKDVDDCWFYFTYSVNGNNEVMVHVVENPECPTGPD
T2 sequence (P08648 42-995 limits assumed, chain 1 of 2): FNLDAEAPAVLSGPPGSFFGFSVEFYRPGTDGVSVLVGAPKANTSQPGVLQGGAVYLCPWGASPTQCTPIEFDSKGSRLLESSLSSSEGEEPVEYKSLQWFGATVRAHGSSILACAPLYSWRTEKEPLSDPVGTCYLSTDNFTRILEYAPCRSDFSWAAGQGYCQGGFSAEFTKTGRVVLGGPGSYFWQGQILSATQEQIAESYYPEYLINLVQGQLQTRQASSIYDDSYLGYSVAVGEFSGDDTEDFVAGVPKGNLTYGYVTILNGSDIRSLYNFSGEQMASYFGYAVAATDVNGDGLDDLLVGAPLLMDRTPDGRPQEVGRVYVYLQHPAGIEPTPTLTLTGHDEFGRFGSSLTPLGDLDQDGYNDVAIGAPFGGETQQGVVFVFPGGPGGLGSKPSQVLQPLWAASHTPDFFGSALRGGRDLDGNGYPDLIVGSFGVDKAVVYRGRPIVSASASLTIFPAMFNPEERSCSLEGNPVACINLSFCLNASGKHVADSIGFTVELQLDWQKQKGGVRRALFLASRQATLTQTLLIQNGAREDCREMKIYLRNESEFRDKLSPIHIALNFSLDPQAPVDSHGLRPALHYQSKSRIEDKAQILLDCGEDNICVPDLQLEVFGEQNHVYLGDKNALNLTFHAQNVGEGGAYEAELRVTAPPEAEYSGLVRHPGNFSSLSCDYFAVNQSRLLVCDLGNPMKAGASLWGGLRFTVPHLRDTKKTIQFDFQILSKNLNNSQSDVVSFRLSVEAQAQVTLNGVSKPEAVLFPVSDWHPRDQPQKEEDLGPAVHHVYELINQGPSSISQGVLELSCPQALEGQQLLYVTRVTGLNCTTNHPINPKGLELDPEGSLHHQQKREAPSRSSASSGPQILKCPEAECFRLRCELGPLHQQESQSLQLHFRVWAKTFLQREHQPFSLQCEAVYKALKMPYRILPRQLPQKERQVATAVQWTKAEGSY
T2 sequence (P05556 21-728 limits assumed, chain 2 of 2): as the sequence (P05556 21-728 limits assumed, chain 2 of 2) above

Row | binding result [1] | decrease in Ang2 dependent cell adhesion of U87MG cells to Ang2-coated plates, peptide at 100 µg/ml (integrin on U87MG cells) [%] | Binder | also measured
1 |  | > 50 | HTTNGIYTLTFPNST [Ang2 derived peptide of SEQ ID No. 3] | 
2 |  | > 50 | IYTLTFPNSTEEIKA [Ang2 derived peptide of SEQ ID No. 4] | 

Continued, binder first:

Row | Binder | binding result [1] | decrease in Ang2 dependent cell adhesion of U87MG cells to Ang2-coated plates, peptide at 100 µg/ml (integrin on U87MG cells) [%] | also measured
3 | Ang2 protein having FLAG sequences tagged at its N-terminal (FLAG-Ang2), wild type (ligand, it may include a signal peptide that is absent from the protein; also called FLAG-tagged Ang2; wild-type Ang2 protein) DYKDDDDKYNNFRKSMDSIGKKQYQVQHGSCSYTFLLPEMDNCRSSSSPYVSNAVQRDAPLEYDDSVQRLQVLENIMENNTQWLMKLENYIQDNMKKEMVEIQQNAVQNQTAVMIEIGTNLLNQTAEQTRKLTDVEAQVLNQTTRLELQLLEHSLSTNKLEKQILDQTSEINKLQDKNSFLEKKVLAMEDKHIIQLQSIKEEKDQLQVLVSKQNSIIEELEKKIVTATVNNSVLQKQQHDLMETVNNLLTMMSTSNSAKDPTVAKEEQISFRDCAEVFKSGHTTNGIYTLTFPNSTEEIKAYCDMEAGGGGWTIIQRREDGSVDFQRTWKEYKVGFGNPSGEYWLGNEFVSQLTNQQRYVLKIHLKDWEGNEAYSLYEHFYLSSEELNYRIHLKGLTGTAGKISSISQPGNDFSTKDGDNDKCICKCSQMLTGGWWFDACGPSNLNGMYYPQRQNTNKFNGIKWYYWKGSGYSLKATTMMIRPADF | binds |  | binding result [2]: binds; binding result [3]: binds; binding result [4]: binds
4 | FLAG-Ang2 protein modified form (Q362A) (ligand, also called Q362A Ang2 protein; Q362A modified form) DYKDDDDKYNNFRKSMDSIGKKQYQVQHGSCSYTFLLPEMDNCRSSSSPYVSNAVQRDAPLEYDDSVQRLQVLENIMENNTQWLMKLENYIQDNMKKEMVEIQQNAVQNQTAVMIEIGTNLLNQTAEQTRKLTDVEAQVLNQTTRLELQLLEHSLSTNKLEKQILDQTSEINKLQDKNSFLEKKVLAMEDKHIIQLQSIKEEKDQLQVLVSKQNSIIEELEKKIVTATVNNSVLQKQQHDLMETVNNLLTMMSTSNSAKDPTVAKEEQISFRDCAEVFKSGHTTNGIYTLTFPNSTEEIKAYCDMEAGGGGWTIIQRREDGSVDFQRTWKEYKVGFGNPSGEYWLGNEFVSALTNQQRYVLKIHLKDWEGNEAYSLYEHFYLSSEELNYRIHLKGLTGTAGKISSISQPGNDFSTKDGDNDKCICKCSQMLTGGWWFDACGPSNLNGMYYPQRQNTNKFNGIKWYYWKGSGYSLKATTMMIRPADF | binds |  | invasion of U87MG cells through matrigel-coated transwell toward 5 µg/ml Ang2 protein, 48 hours (fraction of wild type Ang2) (integrin on U87MG cells): 0.5; binding level relative to the wild type Ang2 [5]: ≤ 50%
5 | LNYRIHLKGLTGTAG [Ang2 derived peptide of SEQ ID No. 24] |  | > 50 | 
6 | EYWLGNEFVSQLTNQ [Ang2 derived peptide of SEQ ID No. 15 (Peptide 15)] |  | > 50 | 
